# Target: T1, Vitronectin from human plasma, SIGMA-ALDRICH (human, UniProt P04004 20-478)
# T1 construct: mature
# Experiment: ELISA, fusion protein coated at 10 ug/ml, vitronectin from 10 ug/ml in two-fold dilutions, detected with peroxidase sheep anti-human vitronectin
# T1 sequence (P04004 20-478): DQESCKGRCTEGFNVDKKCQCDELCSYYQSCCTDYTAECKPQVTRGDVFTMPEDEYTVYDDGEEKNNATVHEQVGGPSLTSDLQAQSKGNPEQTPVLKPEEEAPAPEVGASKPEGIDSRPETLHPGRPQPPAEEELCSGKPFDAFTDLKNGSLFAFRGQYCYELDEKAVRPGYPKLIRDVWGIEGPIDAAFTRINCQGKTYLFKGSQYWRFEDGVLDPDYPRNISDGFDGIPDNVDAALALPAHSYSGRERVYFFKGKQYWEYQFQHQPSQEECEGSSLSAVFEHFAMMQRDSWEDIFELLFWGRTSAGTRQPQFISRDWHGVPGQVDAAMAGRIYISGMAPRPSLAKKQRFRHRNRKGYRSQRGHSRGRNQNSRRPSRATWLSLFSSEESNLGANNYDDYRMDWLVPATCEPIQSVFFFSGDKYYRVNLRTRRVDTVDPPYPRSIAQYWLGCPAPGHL
binder,measurement,value
"purified LVL317 PE-PilA fusion protein (other, Coated on microtiter plates at 10 ug/ml; also called PE-PilA fusion non His-tagged protein) QIQKAEQNDVKLAPPTDVRSGYIRLVKNVNYYIDSESIWVDNQEPQIVHFDAVVNLDKGLYVYPEPKRYARSVRQYKILNCANYHLTQVRTDFYDEFWGQGLRAAPKKQKKHTLSLTPDTTLYNAAQIICANYGEAFSVDKKGGTKKAAVSELLQASAPYKADVELCVYSTNETTNCTGGKNGIAADITTAKGYVKSVTTSNGAITVKGDGTLANMEYILQATGNAATGVTWTTTCKGTDASLFPANFCGSVTQ",binding result,binds
